Laboratory results taken from publication PMC3805332 (ACS Chemical Biology, 2013).
Values joined by “and” are separate entries in the source; they are usually repeats but may differ in a detail not shown here. Equal values may be shown once.

Columns and labels:
[1] = target: T1, M. smegmatis TreS (recombinant) (M. smegmatis, UniProt A0R6E0 1-593); test: SEC; M. smegmatis Pep2-K145A with M. smegmatis TreS (Figure S6B); conditions not given; details: both partners purified
T1 sequence (looked up): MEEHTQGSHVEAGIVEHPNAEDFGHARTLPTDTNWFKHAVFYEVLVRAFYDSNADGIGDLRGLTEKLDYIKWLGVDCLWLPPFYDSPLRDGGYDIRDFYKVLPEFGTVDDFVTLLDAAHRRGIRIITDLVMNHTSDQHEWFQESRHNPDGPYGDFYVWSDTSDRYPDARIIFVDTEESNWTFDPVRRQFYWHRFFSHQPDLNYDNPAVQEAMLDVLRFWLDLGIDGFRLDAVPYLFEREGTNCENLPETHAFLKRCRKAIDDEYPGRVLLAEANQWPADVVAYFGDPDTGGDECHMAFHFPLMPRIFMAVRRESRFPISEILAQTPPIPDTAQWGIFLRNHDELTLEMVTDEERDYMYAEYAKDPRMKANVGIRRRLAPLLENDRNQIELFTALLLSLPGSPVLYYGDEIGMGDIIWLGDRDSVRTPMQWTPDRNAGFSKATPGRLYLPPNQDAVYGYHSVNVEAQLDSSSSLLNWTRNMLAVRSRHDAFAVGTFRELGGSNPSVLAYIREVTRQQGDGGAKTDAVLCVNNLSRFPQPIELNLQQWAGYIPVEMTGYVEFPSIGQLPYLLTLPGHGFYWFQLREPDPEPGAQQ

AUC = target: the molecule itself; test: AUC
[2] = target: M. tuberculosis maltokinase Pep2 (M. tuberculosis H37Rv, UniProt O07177 1-455); test: SEC; details: both partners purified

B1: M. smegmatis Pep2-K145A (enzyme)
chain: not shown
Question: Does B1 bind [1]?
Answer: Result: binds

B2: M. tuberculosis trehalose synthase TreS (enzyme)
chain: MNEAEHSVEHPPVQGSHVEGGVVEHPDAKDFGSAAALPADPTWFKHAVFYEVLVRAFFDASADGSGDLRGLIDRLDYLQWLGIDCIWLPPFYDSPLRDGGYDIRDFYKVLPEFGTVDDFVALVDAAHRRGIRIITDLVMNHTSESHPWFQESRRDPDGPYGDYYVWSDTSERYTDARIIFVDTEESNWSFDPVRRQFYWHRFFSHQPDLNYDNPAVQEAMIDVIRFWLGLGIDGFRLDAVPYLFEREGTNCENLPETHAFLKRVRKVVDDEFPGRVLLAEANQWPGDVVEYFGDPNTGGDECHMAFHFPLMPRIFMAVRRESRFPISEIIAQTPPIPDMAQWGIFLRNHDELTLEMVTDEERDYMYAEYAKDPRMKANVGIRRRLAPLLDNDRNQIELFTALLLSLPGSPVLYYGDEIGMGDVIWLGDRDGVRIPMQWTPDRNAGFSTANPGRLYLPPSQDPVYGYQAVNVEAQRDTSTSLLNFTRTMLAVRRRHPAFAVGAFQELGGSNPSVLAYVRQVAGDDGDTVLCVNNLSRFPQPIELDLQQWTNYTPVELTGHVEFPRIGQVPYLLTLPGHGFYWFQLTTHEVGAPPTCGGERRL
Question: B2 was tested. Which “stoichiometry N” value (AUC) did it give?
Answer: Its value is 4 and 8.

Question: Does B2 bind [2]?
Answer: Result: binds
